T1: FcγRIIb (human, UniProt P31994 43-217)
T1 construct: extracellular domain; also called FcgRIIb; 2b
T1 sequence (looked up): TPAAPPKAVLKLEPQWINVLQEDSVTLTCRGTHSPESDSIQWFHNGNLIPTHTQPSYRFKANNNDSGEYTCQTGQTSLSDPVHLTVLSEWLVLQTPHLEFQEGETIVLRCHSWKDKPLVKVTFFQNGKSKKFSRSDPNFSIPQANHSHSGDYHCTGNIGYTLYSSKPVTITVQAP

B1: GpH7-A5/GpH7-B3 variant S298_19Q/GpL16-k0 (antibody, human IgG1, kappa)
heavy 1: not shown
heavy 2: not shown
light: DIVMTQSPLSLPVTPGEPASISCQASESLVHSNRNTYLHWYLQKPGQSPQLLIYKVSNRFSGVPDRFSGSGSGTDFTLKISRVEAEDVGVYYCSQNTHVPPTFGQGTKVEIERTVAAPSVFIFPPSDEQLKSGTASVVCLLNNFYPREAKVQWKVDNALQSGNSQESVTEQDSKDSTYSLSSTLTLSKADYEKHKVYACEVTHQGLSSPVTKSFNRGEC
notes: heterodimerized IgG1, one H chain mutated; also called He Ab
B2: GpH7-A5/GpH7-B3 variant S324_02A/GpL16-k0 (antibody, human IgG1, kappa)
heavy 1: not shown
heavy 2: not shown
light: DIVMTQSPLSLPVTPGEPASISCQASESLVHSNRNTYLHWYLQKPGQSPQLLIYKVSNRFSGVPDRFSGSGSGTDFTLKISRVEAEDVGVYYCSQNTHVPPTFGQGTKVEIERTVAAPSVFIFPPSDEQLKSGTASVVCLLNNFYPREAKVQWKVDNALQSGNSQESVTEQDSKDSTYSLSSTLTLSKADYEKHKVYACEVTHQGLSSPVTKSFNRGEC
notes: as for B1
B3: GpH7-A5/GpH7-B3 variant S298_10E/GpL16-k0 (antibody, human IgG1, kappa)
heavy 1: not shown
heavy 2: not shown
light: DIVMTQSPLSLPVTPGEPASISCQASESLVHSNRNTYLHWYLQKPGQSPQLLIYKVSNRFSGVPDRFSGSGSGTDFTLKISRVEAEDVGVYYCSQNTHVPPTFGQGTKVEIERTVAAPSVFIFPPSDEQLKSGTASVVCLLNNFYPREAKVQWKVDNALQSGNSQESVTEQDSKDSTYSLSSTLTLSKADYEKHKVYACEVTHQGLSSPVTKSFNRGEC
notes: as for B1
B4: GpH7-A5/GpH7-B3 variant S298_20W/GpL16-k0 (antibody, human IgG1, kappa)
heavy 1: not shown
heavy 2: not shown
light: DIVMTQSPLSLPVTPGEPASISCQASESLVHSNRNTYLHWYLQKPGQSPQLLIYKVSNRFSGVPDRFSGSGSGTDFTLKISRVEAEDVGVYYCSQNTHVPPTFGQGTKVEIERTVAAPSVFIFPPSDEQLKSGTASVVCLLNNFYPREAKVQWKVDNALQSGNSQESVTEQDSKDSTYSLSSTLTLSKADYEKHKVYACEVTHQGLSSPVTKSFNRGEC
notes: as for B1
B5: GpH7-A5/GpH7-B3 variant S298_09D/GpL16-k0 (antibody, human IgG1, kappa)
heavy 1: not shown
heavy 2: not shown
light: DIVMTQSPLSLPVTPGEPASISCQASESLVHSNRNTYLHWYLQKPGQSPQLLIYKVSNRFSGVPDRFSGSGSGTDFTLKISRVEAEDVGVYYCSQNTHVPPTFGQGTKVEIERTVAAPSVFIFPPSDEQLKSGTASVVCLLNNFYPREAKVQWKVDNALQSGNSQESVTEQDSKDSTYSLSSTLTLSKADYEKHKVYACEVTHQGLSSPVTKSFNRGEC
notes: as for B1
B6: GpH7-A5/GpH7-B3 variant S298_16H/GpL16-k0 (antibody, human IgG1, kappa)
heavy 1: not shown
heavy 2: not shown
light: DIVMTQSPLSLPVTPGEPASISCQASESLVHSNRNTYLHWYLQKPGQSPQLLIYKVSNRFSGVPDRFSGSGSGTDFTLKISRVEAEDVGVYYCSQNTHVPPTFGQGTKVEIERTVAAPSVFIFPPSDEQLKSGTASVVCLLNNFYPREAKVQWKVDNALQSGNSQESVTEQDSKDSTYSLSSTLTLSKADYEKHKVYACEVTHQGLSSPVTKSFNRGEC
notes: as for B1
B7: GpH7-A5/GpH7-B3 variant S324_01G/GpL16-k0 (antibody, human IgG1, kappa)
heavy 1: not shown
heavy 2: not shown
light: DIVMTQSPLSLPVTPGEPASISCQASESLVHSNRNTYLHWYLQKPGQSPQLLIYKVSNRFSGVPDRFSGSGSGTDFTLKISRVEAEDVGVYYCSQNTHVPPTFGQGTKVEIERTVAAPSVFIFPPSDEQLKSGTASVVCLLNNFYPREAKVQWKVDNALQSGNSQESVTEQDSKDSTYSLSSTLTLSKADYEKHKVYACEVTHQGLSSPVTKSFNRGEC
notes: as for B1
B8: GpH7-A5/GpH7-B3 variant N325_11K/GpL16-k0 (antibody, human IgG1, kappa)
heavy 1: not shown
heavy 2: not shown
light: DIVMTQSPLSLPVTPGEPASISCQASESLVHSNRNTYLHWYLQKPGQSPQLLIYKVSNRFSGVPDRFSGSGSGTDFTLKISRVEAEDVGVYYCSQNTHVPPTFGQGTKVEIERTVAAPSVFIFPPSDEQLKSGTASVVCLLNNFYPREAKVQWKVDNALQSGNSQESVTEQDSKDSTYSLSSTLTLSKADYEKHKVYACEVTHQGLSSPVTKSFNRGEC
notes: as for B1
B9: GpH7-A5/GpH7-B3 variant N325_19Q/GpL16-k0 (antibody, human IgG1, kappa)
heavy 1: not shown
heavy 2: not shown
light: DIVMTQSPLSLPVTPGEPASISCQASESLVHSNRNTYLHWYLQKPGQSPQLLIYKVSNRFSGVPDRFSGSGSGTDFTLKISRVEAEDVGVYYCSQNTHVPPTFGQGTKVEIERTVAAPSVFIFPPSDEQLKSGTASVVCLLNNFYPREAKVQWKVDNALQSGNSQESVTEQDSKDSTYSLSSTLTLSKADYEKHKVYACEVTHQGLSSPVTKSFNRGEC
notes: as for B1

Tests used:
[1] = molecular target: T1, FcγRIIb; test: SPR (Biacore), relative to GpH7-A5/GpH7-B3/GpL16-k0 = 100
Procedure: (§1) The heterodimerized antibodies He Abs in which one of the H chains was introduced with an alteration were assayed for their binding activities to each activating FcγR and inhibitory FcγR according to the method described in Example 4. […] The activating FcγRs in FIGS. 26, 27, 28, and 29 are FcγRIa, FcγRIIa (R), FcγRIIa (H), and FcγRIIIa, respectively.
(§2) Analysis of interaction between objective antibody and the FcγR was carried out using Biacore T100 (GE Healthcare). HBS-EP+ (GE Healthcare) was used as the running buffer, and the measurement temperature was set to 25° C. Chips produced by immobilizing the antigen peptide by the amine coupling method to a Series S Sencor Chip CM5 (GE Healthcare), or alternatively, chips produced by allowing preliminarily biotinylated antigen peptides to interact with and immobilize onto a Series S Sensor Chip SA (certified) (GE Healthcare) were used. Antibodies of interest were captured onto an antigen peptide-immobilized chip, and allowed to interact to each FcγR diluted with running buffer. To regenerate and repeatedly use the chip, the antibodies captured on the chip were washed off by reacting 10 mM glycine-HCl, pH 1.5.

[2] = molecular target: T2, FcγRIa (human, UniProt P12314 16-292); test: as above
T2 construct: extracellular domain; also called FcgRI; FcgRIa
Procedure: as §1, §2

[3] = molecular target: T2, FcγRIa; test: SPR (Biacore); He/Con_1a (FcgRIa) divided by He/Con_2b (FcgRIIb)
Procedure: as §1, §2

T2 sequence (P12314 16-292): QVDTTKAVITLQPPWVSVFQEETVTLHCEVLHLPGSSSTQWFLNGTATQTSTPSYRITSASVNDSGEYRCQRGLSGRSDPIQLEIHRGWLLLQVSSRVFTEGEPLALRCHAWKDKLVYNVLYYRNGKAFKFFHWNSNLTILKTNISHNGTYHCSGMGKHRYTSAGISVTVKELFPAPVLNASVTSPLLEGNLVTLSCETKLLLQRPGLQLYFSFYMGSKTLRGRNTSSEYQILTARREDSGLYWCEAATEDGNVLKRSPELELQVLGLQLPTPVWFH

Binder	He/Con_2b (IIb binding) [1]	He/Con_1a (Ia binding) [2]	Ia/IIb He_1a/2b [3]
B1	73.3 relative (control = 100)	109 relative (control = 100)	1.49
B2	78.3 relative (control = 100)	103 relative (control = 100)	1.31
B3	47.6 relative (control = 100)	108 relative (control = 100)	2.28
B4	41.1 relative (control = 100)	104 relative (control = 100)	2.53
B5	48.3 relative (control = 100)	106 relative (control = 100)	2.19
B6	63.5 relative (control = 100)	109 relative (control = 100)	1.71
B7	81.1 relative (control = 100)	98.8 relative (control = 100)	1.22
B8	10.4 relative (control = 100)	80.9 relative (control = 100)	7.81
B9	69.1 relative (control = 100)	99.1 relative (control = 100)	1.43

From US20180155451A1 (published 2018)
